Assay results published in paper doi:10.1101/2022.07.14.499993 (bioRxiv, 2022).
One block for each binder: values may come before it.

How the values were obtained:
[1] = molecular target: T1, IL-11/IL-11Rα fusion (interleukin and receptor connected with a (GGGGS)3 linker) (UniProt Q14626 113-318; P20809 23-199); assay: ITC
T1 chain: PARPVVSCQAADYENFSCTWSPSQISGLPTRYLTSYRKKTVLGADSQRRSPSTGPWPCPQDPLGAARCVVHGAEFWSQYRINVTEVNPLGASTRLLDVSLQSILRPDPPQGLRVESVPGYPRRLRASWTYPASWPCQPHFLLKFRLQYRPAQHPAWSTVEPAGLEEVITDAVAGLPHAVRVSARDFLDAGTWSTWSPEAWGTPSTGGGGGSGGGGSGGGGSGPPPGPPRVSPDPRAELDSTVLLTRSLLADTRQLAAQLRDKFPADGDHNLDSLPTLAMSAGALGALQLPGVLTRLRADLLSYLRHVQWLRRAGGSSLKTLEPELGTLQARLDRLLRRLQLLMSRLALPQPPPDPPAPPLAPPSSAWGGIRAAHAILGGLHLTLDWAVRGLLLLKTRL

[2] = molecular target: IL-6/IL-6Rα fusion (interleukin and receptor connected with a (GGGGS)3 linker) (UniProt P08887 114-320; P05231 30-212); assay: ITC
[3] = molecular target: T2, IL-11 receptor α (amino acids 113-318), the receptor part of the IL-11/IL-11Rα fusion (UniProt Q14626 113-318); assay: HDX-MS
T2 sequence (looked up): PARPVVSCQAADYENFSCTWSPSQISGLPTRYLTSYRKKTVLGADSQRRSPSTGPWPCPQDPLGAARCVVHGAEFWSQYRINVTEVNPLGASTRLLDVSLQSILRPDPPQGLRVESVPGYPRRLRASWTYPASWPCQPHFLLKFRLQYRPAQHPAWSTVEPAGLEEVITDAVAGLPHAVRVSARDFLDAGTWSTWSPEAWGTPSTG

[4] = molecular target: T3, IL-11 receptor α, fusion protein with the Fc domain of human IgG1 (UniProt Q14626 24-370); assay: SPR
T3 sequence (looked up): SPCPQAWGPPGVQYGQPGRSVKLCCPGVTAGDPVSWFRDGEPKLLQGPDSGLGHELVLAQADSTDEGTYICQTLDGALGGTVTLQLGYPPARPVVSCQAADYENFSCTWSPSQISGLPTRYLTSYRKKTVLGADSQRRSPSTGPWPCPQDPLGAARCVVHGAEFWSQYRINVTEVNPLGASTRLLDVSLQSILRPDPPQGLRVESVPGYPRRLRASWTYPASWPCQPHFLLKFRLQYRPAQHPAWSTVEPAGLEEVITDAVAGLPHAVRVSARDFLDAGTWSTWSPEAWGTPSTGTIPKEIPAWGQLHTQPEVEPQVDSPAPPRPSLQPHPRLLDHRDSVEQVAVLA

dH [1]: -12.2 ± 0.239 kcal/mol | dH [2]: -6.69 ± 0.239 kcal/mol
B1: human glycoprotein 130 (amino acids 24-618) (receptor, UniProt P40189 24-618, looked up)
chain: LLDPCGYISPESPVVQLHSNFTAVCVLKEKCMDYFHVNANYIVWKTNHFTIPKEQYTIINRTASSVTFTDIASLNIQLTCNILTFGQLEQNVYGITIISGLPPEKPKNLSCIVNEGKKMRCEWDGGRETHLETNFTLKSEWATHKFADCKAKRDTPTSCTVDYSTVYFVNIEVWVEAENALGKVTSDHINFDPVYKVKPNPPHNLSVINSEELSSILKLTWTNPSIKSVIILKYNIQYRTKDASTWSQIPPEDTASTRSSFTVQDLKPFTEYVFRIRCMKEDGKGYWSDWSEEASGITYEDRPSKAPSFWYKIDPSHTQGYRTVQLVWKTLPPFEANGKILDYEVTLTRWKSHLQNYTVNATKLTVNLTNDRYLATLTVRNLVGKSDAAVLTIPACDFQATHPVMDLKAFPKDNMLWVEWTTPRESVKKYILEWCVLSDKAPCITDWQQEDGTVHRTYLRGNLAESKCYLITVTPVYADGPGSPESIKAYLKQAPPSKGPTVRTKKVGKNEAVLEWDQLPVDVQNGFIRNYTIFYRTIIGNETAVNVDSSHTEYTLSSLTSDTLYMVRMAAYTDEGGKDGPEFTFTTPKFAQGEI

binding result [3]: binds
B2: Interleukin-11 (amino acids 23-199), the interleukin part of the IL-11/IL-11Rα fusion (domain or fragment, UniProt P20809 23-199, looked up)
chain: GPPPGPPRVSPDPRAELDSTVLLTRSLLADTRQLAAQLRDKFPADGDHNLDSLPTLAMSAGALGALQLPGVLTRLRADLLSYLRHVQWLRRAGGSSLKTLEPELGTLQARLDRLLRRLQLLMSRLALPQPPPDPPAPPLAPPSSAWGGIRAAHAILGGLHLTLDWAVRGLLLLKTRL

dH [4]: 11.2 ± 0.717 kcal/mol
B3: Interleukin-11 (ligand, UniProt P20809 22-199, looked up)
chain: PGPPPGPPRVSPDPRAELDSTVLLTRSLLADTRQLAAQLRDKFPADGDHNLDSLPTLAMSAGALGALQLPGVLTRLRADLLSYLRHVQWLRRAGGSSLKTLEPELGTLQARLDRLLRRLQLLMSRLALPQPPPDPPAPPLAPPSSAWGGIRAAHAILGGLHLTLDWAVRGLLLLKTRL
